The results in this text go back to publication PMC7768483, “Gbx2 Is Required for the Migration and Survival of a Subpopulation of Trigeminal Cranial Neural Crest Cells”.

This data set concerns the target GBX2 (full-length) (mouse, UniProt P48031 1-348). Briefly: EMSA; 720 nM GBX2, 940 pM probe; supershift with GBX2 antibody; 2X binding buffer: 20 mM Tris-HCl pH 7.4, 50 mM KCl, 1 mM DTT, 10% glycerol, 200 µg/mL BSA, 2.2 µg/mL poly dI/dC; 30 min at 25 °C; 6% native PAGE, Tris-glycine. To be noted: protein: recombinant; label: 32P end label (probe); blunt. On the technique in general: A gel shift assay detects complexes by their altered migration in electrophoresis.

Chain of GBX2 (full-length) (P48031 whole entry): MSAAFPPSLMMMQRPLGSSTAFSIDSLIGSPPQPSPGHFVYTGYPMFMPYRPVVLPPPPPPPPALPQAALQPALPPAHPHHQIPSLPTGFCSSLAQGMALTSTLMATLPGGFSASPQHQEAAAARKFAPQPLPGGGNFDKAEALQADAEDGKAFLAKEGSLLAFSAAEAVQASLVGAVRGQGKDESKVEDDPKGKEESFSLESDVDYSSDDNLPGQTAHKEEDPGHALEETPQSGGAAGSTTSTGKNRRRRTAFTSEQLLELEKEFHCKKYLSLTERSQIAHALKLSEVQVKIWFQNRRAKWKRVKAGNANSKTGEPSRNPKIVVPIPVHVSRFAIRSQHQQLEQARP

B1: NRP1 oligonucleotide (dsDNA)
DNA 1: AACATTCCAAAAATTATCAACCATTTCAGGAATACATTTCATAAAAGCTAGATTGAGTTCTGCTTGTTTTTTATT
DNA 2: AATAAAAAACAAGCAGAACTCAATCTAGCTTTTATGAAATGTATTCCTGAAATGGTTGATAATTTTTGGAATGTT
As for B1, the binding result is recorded as “binds”.
